The values below come from patent publication US20240158538A1 (HUMMINGBIRD BIOSCIENCE HOLDINGS PTE, published 2024).

Residue numbers refer to the chain shown, from its start. Where two headings read alike, the source gives them in different places.

Assay [1] has as its target T1, PD-1 (ELISA coat) (human, UniProt Q15116 25-167, limits assumed).
T1 construct: Species read from the list 'human VISTA, PD-1, PD-L1, ...'
As to the kind of experiment: ELISA, plate coated with PD1.

For assay [2], the target named is T2, B7H3 (ELISA coat) (human, UniProt Q5ZPR3 29-461, limits assumed).
T2 construct: Species read from the list 'human VISTA, PD-1, PD-L1, ...'; also called CD276
T2 sequence (looked up): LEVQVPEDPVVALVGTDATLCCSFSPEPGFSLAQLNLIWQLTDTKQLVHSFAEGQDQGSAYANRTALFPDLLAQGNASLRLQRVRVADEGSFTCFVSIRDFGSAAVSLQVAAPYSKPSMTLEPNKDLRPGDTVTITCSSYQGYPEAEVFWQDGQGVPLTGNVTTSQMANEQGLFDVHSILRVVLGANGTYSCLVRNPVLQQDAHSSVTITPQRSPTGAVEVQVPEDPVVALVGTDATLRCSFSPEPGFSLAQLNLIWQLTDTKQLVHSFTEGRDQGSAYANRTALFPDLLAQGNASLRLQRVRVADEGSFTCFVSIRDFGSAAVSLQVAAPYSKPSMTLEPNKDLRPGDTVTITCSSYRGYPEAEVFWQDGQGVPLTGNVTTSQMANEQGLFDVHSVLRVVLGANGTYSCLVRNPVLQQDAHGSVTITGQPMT
Kind of assay: ELISA, plate coated with B7H3.

The target of assay [3] is T3, B7H4 (ELISA coat) (human, UniProt Q7Z7D3 25-258, limits assumed).
T3 construct: Species read from the list 'human VISTA, PD-1, PD-L1, ...'; also called VTCN1
T3 sequence (looked up): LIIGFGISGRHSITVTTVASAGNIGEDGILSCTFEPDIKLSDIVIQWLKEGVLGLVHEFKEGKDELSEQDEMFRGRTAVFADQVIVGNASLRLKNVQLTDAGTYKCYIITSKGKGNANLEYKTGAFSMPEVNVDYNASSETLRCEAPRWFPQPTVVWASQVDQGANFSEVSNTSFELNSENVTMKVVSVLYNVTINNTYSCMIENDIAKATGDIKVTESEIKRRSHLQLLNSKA
As to the kind of experiment: ELISA, plate coated with B7H4.

Assay [4] addresses T4, B7H6 (ELISA coat) (human, UniProt Q68D85 25-262, limits assumed).
T4 construct: Species read from the list 'human VISTA, PD-1, PD-L1, ...'; also called NCR3LG1
T4 sequence (looked up): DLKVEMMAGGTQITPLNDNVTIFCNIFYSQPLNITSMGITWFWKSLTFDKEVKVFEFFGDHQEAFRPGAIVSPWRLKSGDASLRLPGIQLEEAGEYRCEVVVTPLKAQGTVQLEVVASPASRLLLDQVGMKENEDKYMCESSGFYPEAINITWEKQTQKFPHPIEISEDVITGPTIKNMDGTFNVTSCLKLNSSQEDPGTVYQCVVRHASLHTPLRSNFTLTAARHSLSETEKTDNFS
Kind of assay: ELISA, plate coated with B7H6.

In assay [5] the target is T5, B7H7 (ELISA coat) (human, UniProt Q9UM44 23-344, limits assumed).
T5 construct: Species read from the list 'human VISTA, PD-1, PD-L1, ...'; also called HHLA2
T5 sequence (looked up): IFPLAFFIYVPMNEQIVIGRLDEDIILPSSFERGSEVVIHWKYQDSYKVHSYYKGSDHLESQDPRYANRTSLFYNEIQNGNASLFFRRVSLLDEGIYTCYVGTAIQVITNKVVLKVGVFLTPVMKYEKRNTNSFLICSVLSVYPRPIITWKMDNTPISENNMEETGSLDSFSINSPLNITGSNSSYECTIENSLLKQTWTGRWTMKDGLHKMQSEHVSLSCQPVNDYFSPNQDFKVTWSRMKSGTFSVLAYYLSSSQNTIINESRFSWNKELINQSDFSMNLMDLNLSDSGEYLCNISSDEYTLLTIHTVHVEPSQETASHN
Kind of assay: ELISA, plate coated with B7H7.

Assay [6] has as its target T6, CTLA4 (ELISA coat) (human, UniProt P16410 36-162, limits assumed).
T6 construct: Species read from the list 'human VISTA, PD-1, PD-L1, ...'
As to the kind of experiment: ELISA, plate coated with CTLA4.

The target of assay [7] is T7, human PD-L1 (ELISA coat) (human, UniProt Q9NZQ7 19-239). Kind of assay: ELISA, plate coated with B7H1 (PDL1).
Assay [8] concerns the target T1, PD-1 (ELISA coat). As to the kind of experiment: ELISA, plate coated with PD1. The source holds these as a separate data set.
In assay [9] the target is T2, B7H3 (ELISA coat). Kind of assay: ELISA, plate coated with B7H3. The source holds these as a separate data set.
Assay [10] deals with T3, B7H4 (ELISA coat). Kind of assay: ELISA, plate coated with B7H4. The source holds these as a separate data set.
Assay [11] concerns the target T4, B7H6 (ELISA coat). As to the kind of experiment: ELISA, plate coated with B7H6. This is another data set of the same source.
Assay [12] addresses T5, B7H7 (ELISA coat). Kind of assay: ELISA, plate coated with B7H7. The source holds these as a separate data set.
The target of assay [13] is T6, CTLA4 (ELISA coat). Kind of assay: ELISA, plate coated with CTLA4. This is another data set of the same source.
In assay [14] the target is T7, human PD-L1 (ELISA coat). Kind of assay: ELISA, plate coated with B7H1 (PDL1). This is another data set of the same source.
The target of assay [15] is T1, PD-1 (ELISA coat). Kind of assay: ELISA, plate coated with PD1. The source holds these as a separate data set.
Assay [16] has as its target T2, B7H3 (ELISA coat). Kind of assay: ELISA, plate coated with B7H3. The source holds these as a separate data set.
Assay [17] addresses T3, B7H4 (ELISA coat). Kind of assay: ELISA, plate coated with B7H4. This is another data set of the same source.
Assay [18] concerns the target T4, B7H6 (ELISA coat). Kind of assay: ELISA, plate coated with B7H6. This is another data set of the same source.
The target in assay [19] is T5, B7H7 (ELISA coat). As to the kind of experiment: ELISA, plate coated with B7H7. The source holds these as a separate data set.
The target of assay [20] is T6, CTLA4 (ELISA coat). Kind of assay: ELISA, plate coated with CTLA4. This is another data set of the same source.
Assay [21] addresses T7, human PD-L1 (ELISA coat). As to the kind of experiment: ELISA, plate coated with B7H1 (PDL1). This is another data set of the same source.
Assay [22] concerns the target T2, B7H3 (ELISA coat). As to the kind of experiment: ELISA, B7H3 coated.
For assay [23], the target named is T6, CTLA4 (ELISA coat). Kind of assay: ELISA, CTLA4 coated.
In the next assay the target is human HER3 (human, UniProt P21860 20-643). As to the kind of experiment: ELISA, human HER3 coated.
Assay [24] has as its target T7, human PD-L1 (ELISA coat). Kind of assay: ELISA, human PD-L1 coated.
Assay [25] has as its target T1, PD-1 (ELISA coat). Kind of assay: ELISA, plate coated with PD1. This is another data set of the same source.
The target of assay [26] is T3, B7H4 (ELISA coat). Kind of assay: ELISA, plate coated with B7H4. The source holds these as a separate data set.
Assay [27] addresses T4, B7H6 (ELISA coat). Kind of assay: ELISA, plate coated with B7H6. This is another data set of the same source.
In assay [28] the target is T5, B7H7 (ELISA coat). As to the kind of experiment: ELISA, plate coated with B7H7. The source holds these as a separate data set.

T6 sequence (P16410 36-162 limits assumed): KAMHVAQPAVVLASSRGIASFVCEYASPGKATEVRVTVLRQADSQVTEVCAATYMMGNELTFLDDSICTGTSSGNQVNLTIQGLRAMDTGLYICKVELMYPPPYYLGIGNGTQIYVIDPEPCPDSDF
T7 sequence (Q9NZQ7 19-239 limits assumed): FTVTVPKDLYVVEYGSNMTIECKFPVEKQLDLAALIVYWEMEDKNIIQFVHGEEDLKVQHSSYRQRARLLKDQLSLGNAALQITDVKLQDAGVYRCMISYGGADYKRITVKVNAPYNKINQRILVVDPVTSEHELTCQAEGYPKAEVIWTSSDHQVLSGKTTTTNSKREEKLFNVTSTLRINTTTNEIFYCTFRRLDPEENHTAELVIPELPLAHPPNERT
T1 sequence (Q15116 25-167 limits assumed): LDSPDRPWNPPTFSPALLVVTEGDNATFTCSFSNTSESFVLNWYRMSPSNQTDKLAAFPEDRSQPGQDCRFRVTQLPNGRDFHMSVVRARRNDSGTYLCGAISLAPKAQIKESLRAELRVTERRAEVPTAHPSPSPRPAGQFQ

B1: anti-VISTA clone V4-C24 IgG1 (antibody, V domains shown)
VH: QVQLQESGPGLVKPSDTLSLTCTVSGYSITSDYTWNWIRQTPGKGLEWIGHITYSGSVSYNPSLRSRVTISRDTSKNQFSLKLSSVTAADTATYSCARALYYPWYFDVWGTGTTVTVSS
VL: EIVLTQSPATLSLSPGERATLSCRASSSVGYIHWYQQKPGQAPRPLIYTTSYRATGIPARFSGSGSGTDNTLTISSLEPEDSAVYYCQQWSSYPPITFGGGTKLEVKR
notes: Human IgG1/kappa
Take B1: the binding result with PD-1 (ELISA coat) [1], with B7H3 (ELISA coat) [2], with B7H4 (ELISA coat) [3], with B7H6 (ELISA coat) [4], with B7H7 (ELISA coat) [5] and with CTLA4 (ELISA coat) [6] was “no binding (tested: log -7.5 (about 3e-8 M))” throughout. Also, the binding result with human PD-L1 (ELISA coat) [7] is given as “no binding (tested: log -7.5 (about 3e-8 M))”.

B2: anti-VISTA clone V4-C27 IgG1 (antibody, V domains shown)
VH: B1 VH
VL: B1 VL with T49A, S51Y, Y52N
notes: Human IgG1/kappa
Consider B2, for which the binding result with PD-1 (ELISA coat) [8], in the assay with B7H3 (ELISA coat) [9], with B7H4 (ELISA coat) [10], with B7H6 (ELISA coat) [11], with B7H7 (ELISA coat) [12] and in the assay with CTLA4 (ELISA coat) [13] was “no binding (tested: log -7.5 (about 3e-8 M))” each time. Moreover, the binding result with human PD-L1 (ELISA coat) [14] is “no binding (tested: log -7.5 (about 3e-8 M))”.

B3: anti-VISTA clone V4-C26 IgG1 (antibody, V domains shown)
VH: B1 VH
VL: B1 VL with L46I, Y52N
notes: Human IgG1/kappa
Consider B3, for which the binding result with PD-1 (ELISA coat) [15], with B7H3 (ELISA coat) [16], with B7H4 (ELISA coat) [17], in the assay with B7H6 (ELISA coat) [18], in the assay with B7H7 (ELISA coat) [19] and with CTLA4 (ELISA coat) [20] was “no binding (tested: log -7.5 (about 3e-8 M))” each time. For the same molecule, the binding result in the assay with human PD-L1 (ELISA coat) [21] was “no binding (tested: log -7.5 (about 3e-8 M))”.

B4: anti-VISTA clone 4M2-C12 IgG1 (antibody)
heavy: not shown
light: DIVITQTPAILSTSPGEKVTMTCRASSSVGYIHWYQQKPGSSPKPWIYATSNLASGVPARFSGSGSGTSNSLTITRVEAEDAATYYCQQWSSYPPITFGGGTKLEVKRTVAAPSVFIFPPSDEQLKSGTASVVCLLNNFYPREAKVQWKVDNALQSGNSQESVTEQDSKDSTYSLSSTLTLSKADYEKHKVYACEVTHQGLSSPVTKSFNRGEC
notes: also called V4; 4M2-C12-hIgG1
For the molecule B4, the binding result was “no binding (tested: log M about -7.5)” in the assay with B7H3 (ELISA coat) [22]; “no binding (tested: log M about -7.5)” in the assay with CTLA4 (ELISA coat) [23]; “no binding (tested: log M about -6.2)” in the assay with human HER3; “no binding (tested: log M about -6.7)” with human PD-L1 (ELISA coat) [24]; “no binding (tested: log -7.5 (about 3e-8 M))” with PD-1 (ELISA coat) [25]; “no binding (tested: log -7.5 (about 3e-8 M))” with B7H4 (ELISA coat) [26]. Further, the binding result in the assay with B7H6 (ELISA coat) [27] and in the assay with B7H7 (ELISA coat) [28] was “no binding (tested: log -7.5 (about 3e-8 M))” each time.
